Assay results as given in paper PMC11410649 (Nature, 2024).
Where two headings read alike, the source gives them in different places.

Key:
canine NPR1 = canine NPR1 (Canis lupus familiaris, UniProt A0A8I3MHU3); test: cell-based or functional assay
[1] = molecular target: T1, human NPR1 on HEK293 cells (Homo sapiens, UniProt P16066); test: flow cytometry on cells
[2] = molecular target: T2, cynomolgus monkey NPR1 on HEK293 cells (Macaca fascicularis); test: flow cytometry on cells
T2 chain: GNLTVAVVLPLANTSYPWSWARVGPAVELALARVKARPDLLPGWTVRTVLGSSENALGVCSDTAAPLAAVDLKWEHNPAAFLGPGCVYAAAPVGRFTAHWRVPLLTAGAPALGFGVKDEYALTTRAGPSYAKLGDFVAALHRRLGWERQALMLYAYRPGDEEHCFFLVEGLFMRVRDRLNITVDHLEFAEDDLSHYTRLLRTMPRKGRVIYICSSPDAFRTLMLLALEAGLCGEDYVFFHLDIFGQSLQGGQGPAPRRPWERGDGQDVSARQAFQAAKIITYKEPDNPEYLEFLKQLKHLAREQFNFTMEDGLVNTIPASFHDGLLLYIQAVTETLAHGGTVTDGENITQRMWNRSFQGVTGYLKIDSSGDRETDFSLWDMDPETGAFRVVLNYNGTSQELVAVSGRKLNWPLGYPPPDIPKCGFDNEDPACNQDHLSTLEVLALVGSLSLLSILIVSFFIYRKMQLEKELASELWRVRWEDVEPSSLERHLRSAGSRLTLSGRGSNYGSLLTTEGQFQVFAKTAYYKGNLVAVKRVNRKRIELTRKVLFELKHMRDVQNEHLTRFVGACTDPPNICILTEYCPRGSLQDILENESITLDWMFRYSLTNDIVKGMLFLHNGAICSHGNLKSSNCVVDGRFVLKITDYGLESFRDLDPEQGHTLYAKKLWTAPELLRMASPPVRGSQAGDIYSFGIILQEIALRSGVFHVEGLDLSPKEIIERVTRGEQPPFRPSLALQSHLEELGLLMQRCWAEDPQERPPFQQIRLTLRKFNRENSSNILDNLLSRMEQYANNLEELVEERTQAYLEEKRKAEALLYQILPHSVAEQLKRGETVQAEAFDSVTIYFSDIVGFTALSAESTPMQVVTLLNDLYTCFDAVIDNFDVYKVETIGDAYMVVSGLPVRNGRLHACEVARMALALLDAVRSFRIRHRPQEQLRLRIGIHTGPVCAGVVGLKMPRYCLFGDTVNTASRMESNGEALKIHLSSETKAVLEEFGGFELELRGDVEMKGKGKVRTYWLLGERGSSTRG

[3] = molecular target: T1, human NPR1 on HEK293 cells; test: flow cytometry on cells; remark: listed apart in the source
[4] = molecular target: T2, cynomolgus monkey NPR1 on HEK293 cells; test: flow cytometry on cells
[5] = molecular target: T1, human NPR1 on HEK293 cells; test: flow cytometry on cells; remark: listed apart in the source
[6] = molecular target: T2, cynomolgus monkey NPR1 on HEK293 cells; test: flow cytometry on cells
[7] = molecular target: T3, monkey NPR1 extracellular domain with C-terminal MycMycHis (Macaca fascicularis); test: SPR
T3 chain: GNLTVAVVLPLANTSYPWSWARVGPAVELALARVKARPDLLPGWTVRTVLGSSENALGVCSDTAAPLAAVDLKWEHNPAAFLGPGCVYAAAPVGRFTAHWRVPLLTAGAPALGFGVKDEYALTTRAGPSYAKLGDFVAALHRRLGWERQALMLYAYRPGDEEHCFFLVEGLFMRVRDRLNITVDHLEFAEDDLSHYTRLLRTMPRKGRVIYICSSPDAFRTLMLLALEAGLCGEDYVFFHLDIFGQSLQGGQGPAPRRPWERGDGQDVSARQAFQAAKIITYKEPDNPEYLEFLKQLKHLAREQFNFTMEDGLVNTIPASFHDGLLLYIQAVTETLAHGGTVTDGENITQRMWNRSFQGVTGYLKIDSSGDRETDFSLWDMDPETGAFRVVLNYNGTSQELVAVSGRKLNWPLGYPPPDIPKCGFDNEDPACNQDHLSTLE

mouse NPR1 protein = mouse NPR1 protein (mouse, UniProt P18293); test: SPR
Chain of mouse NPR1 protein (P18293 29-469): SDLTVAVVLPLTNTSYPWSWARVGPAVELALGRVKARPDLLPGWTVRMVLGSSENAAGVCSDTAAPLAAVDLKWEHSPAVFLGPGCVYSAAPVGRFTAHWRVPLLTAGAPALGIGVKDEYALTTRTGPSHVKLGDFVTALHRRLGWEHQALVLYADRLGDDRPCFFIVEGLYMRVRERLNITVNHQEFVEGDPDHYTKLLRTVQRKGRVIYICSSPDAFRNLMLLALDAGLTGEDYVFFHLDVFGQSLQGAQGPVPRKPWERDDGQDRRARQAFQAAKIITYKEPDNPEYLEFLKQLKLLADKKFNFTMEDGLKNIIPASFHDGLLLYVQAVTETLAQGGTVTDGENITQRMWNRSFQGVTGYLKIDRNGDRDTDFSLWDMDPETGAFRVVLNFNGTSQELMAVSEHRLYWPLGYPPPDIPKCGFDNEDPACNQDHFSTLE

[8] = molecular target: NPR2 extracellular domain with C-terminal MycMycHis (Homo sapiens, UniProt P20594); test: SPR
Chain of NPR2 extracellular domain with C-terminal MycMycHis (P20594 23-458): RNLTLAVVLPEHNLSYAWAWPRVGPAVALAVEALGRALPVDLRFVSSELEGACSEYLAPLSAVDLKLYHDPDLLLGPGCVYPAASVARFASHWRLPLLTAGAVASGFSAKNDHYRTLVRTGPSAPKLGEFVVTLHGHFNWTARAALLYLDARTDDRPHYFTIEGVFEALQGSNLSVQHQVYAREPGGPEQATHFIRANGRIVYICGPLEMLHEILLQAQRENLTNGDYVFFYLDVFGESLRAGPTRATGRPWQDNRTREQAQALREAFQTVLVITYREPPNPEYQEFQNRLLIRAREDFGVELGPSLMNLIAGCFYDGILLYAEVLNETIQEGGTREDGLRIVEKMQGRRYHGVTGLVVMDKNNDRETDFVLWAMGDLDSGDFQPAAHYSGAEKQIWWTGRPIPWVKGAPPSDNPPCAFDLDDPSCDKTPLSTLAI

[9] = molecular target: NPR3 extracellular domain with C-terminal MycMycHis (Homo sapiens, UniProt P17342); test: SPR
Chain of NPR3 extracellular domain with C-terminal MycMycHis (P17342 27-481): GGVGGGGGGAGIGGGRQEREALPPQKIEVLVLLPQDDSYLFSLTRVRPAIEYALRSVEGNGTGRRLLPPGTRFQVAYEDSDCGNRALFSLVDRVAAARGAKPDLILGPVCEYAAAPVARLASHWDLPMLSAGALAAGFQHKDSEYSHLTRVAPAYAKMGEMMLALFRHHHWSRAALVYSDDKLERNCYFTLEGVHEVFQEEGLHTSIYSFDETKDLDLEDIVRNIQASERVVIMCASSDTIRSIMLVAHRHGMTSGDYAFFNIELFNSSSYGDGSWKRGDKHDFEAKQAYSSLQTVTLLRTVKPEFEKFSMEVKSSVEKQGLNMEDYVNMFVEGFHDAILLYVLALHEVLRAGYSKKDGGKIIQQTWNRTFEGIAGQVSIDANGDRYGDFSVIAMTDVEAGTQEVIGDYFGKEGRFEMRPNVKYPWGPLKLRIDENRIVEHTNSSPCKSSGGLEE

[10] = molecular target: T4, atrial natriuretic peptide (human, UniProt P01160); test: SPR
T4 chain: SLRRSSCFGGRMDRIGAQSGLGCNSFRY

- activation of canine NPR1 (Supplementary Fig. 1); EC50 (canine NPR1): > 100 nM
- EC50 [1]: 4.58 nM
- EC50 [2]: 2.27 nM
- EC50 [3]: 4.56 nM
- EC50 [4]: 2.42 nM
- EC50 [5]: 5.69 nM
- EC50 [6]: 3.01 nM
- binding result [7]: binds
- binding result (mouse NPR1 protein): no binding
- binding result [8]: no binding
- binding result [9]: no binding
- binding result [10]: no binding
B1: REGN5381 (antibody, V domains shown)
VH: QVQLVQSGAEVKKPGASVTVSCKASGYTFTDYYMHWVRQAPGQGLEWMGWIKPNSGGTNSAQRFQGRITMTWDTSISTAYMELSRLRSDDTAVYYCSRGGPVMNYYYYYGMDVWGQGTTVTVSS
VL: NIQMTQSPSSLSASVGDRVTITCRASQSIDSYLNWYQQKPGKAPKLLIYVASSLQSGVPSRFSGSGSGKDFTLTISSLQPEDFATYYCQQSYSIPTFGQGTRLEIK
